For data set [1], the target named is T1, ScPho4 DBD (Saccharomyces cerevisiae, UniProt P07270 236-312).
T1 sequence: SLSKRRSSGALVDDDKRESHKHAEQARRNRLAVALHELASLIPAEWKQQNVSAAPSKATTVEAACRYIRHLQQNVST
Put plainly: EMSA; 5 mM MgCl2, 1 mM EDTA; 4 C; BLI: 1x PBS pH 7.4, 0.01% BSA, 0.002% Tween-20, 0.005% sodium azide, 30 C; EMSA: 20 mM Tris-HCl pH 8, 150 mM KCl, 10% glycerol, 5 mM MgCl2, 1 mM EDTA, 1 mM DTT, 4 C. The conditions noted are these: protein: recombinant; tags: C-terminal 6xHis; chain copies: 2; label: IR700; blunt.

For data set [2], the target named is T2, CgPho4 DBD (Candida glabrata, UniProt Q6FVW0 452-533).
T2 sequence: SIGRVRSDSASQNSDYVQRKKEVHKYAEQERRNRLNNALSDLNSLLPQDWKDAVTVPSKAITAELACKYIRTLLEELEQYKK
The description is as above. To be noted: protein: recombinant; tags: C-terminal 6xHis; chain copies: 2; label: IR700; blunt.

The target of data set [3] is T1, ScPho4 DBD. Briefly: BLI; mean of 5 replicates; 30 C; BLI: 1x PBS pH 7.4, 0.01% BSA, 0.002% Tween-20, 0.005% sodium azide, 30 C; EMSA: 20 mM Tris-HCl pH 8, 150 mM KCl, 10% glycerol, 5 mM MgCl2, 1 mM EDTA, 1 mM DTT, 4 C. To be noted: protein: recombinant; tags: C-terminal 6xHis; chain copies: 2; blunt. Background: BLI is a label-free optical method that tracks binding on a fibre tip over time.

Data set [4] addresses T2, CgPho4 DBD. The data set is described as above. The conditions noted are these: protein: recombinant; tags: C-terminal 6xHis; chain copies: 2; blunt.

B1: 17-bp consensus E-box, EMSA probe (dsDNA)
DNA 1: CTAGTCCCACGTGTGAG
DNA 2: CTCACACGTGGGACTAG
Broadly, the Kd is the equilibrium constant for the complex coming apart. For B1, the Kd in data set [1] was determined as 5.5 nM; in data set [2], 1.9 nM.

B2: 17-bp consensus E-box, BLI probe (dsDNA)
DNA 1: CTAGTCCCACGTGTGAG
DNA 2: CTCACACGTGGGACTAG
For B2, the values for the dissociation constant Kd in data set [3] and in data set [4] were 5.2 nM and 1.2 nM, respectively.

Source of the values: publication PMC12177071, “Divergence in a eukaryotic transcription factor’s co-TF dependence involves multiple intrinsically disordered regions”.
